Literature values as cited in paper PMC9406010.

Legend:
CCRL2 (Homo sapiens) = CCRL2 (Homo sapiens) (UniProt O00421)
GPR1 (Homo sapiens) = GPR1 (Homo sapiens) (UniProt P46091)
CMKLR1 (Homo sapiens) = CMKLR1 (Homo sapiens) (UniProt Q99788)
Sequence of CMKLR1 (Homo sapiens) (Q99788 whole entry): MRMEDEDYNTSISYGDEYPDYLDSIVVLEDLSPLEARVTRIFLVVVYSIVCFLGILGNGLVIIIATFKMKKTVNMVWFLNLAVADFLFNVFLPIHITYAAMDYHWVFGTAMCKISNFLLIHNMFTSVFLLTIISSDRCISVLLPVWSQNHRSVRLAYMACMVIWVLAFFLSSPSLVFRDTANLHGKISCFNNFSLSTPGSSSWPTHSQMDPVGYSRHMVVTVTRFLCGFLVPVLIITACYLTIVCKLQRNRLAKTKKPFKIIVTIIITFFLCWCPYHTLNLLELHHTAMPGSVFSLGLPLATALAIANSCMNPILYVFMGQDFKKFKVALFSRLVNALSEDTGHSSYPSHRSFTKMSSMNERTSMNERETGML

Sequence of Chemerin (Q99969 21-157): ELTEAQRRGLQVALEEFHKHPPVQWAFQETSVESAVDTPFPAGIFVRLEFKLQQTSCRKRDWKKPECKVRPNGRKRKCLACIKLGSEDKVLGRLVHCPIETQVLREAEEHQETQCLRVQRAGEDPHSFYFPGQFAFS
Sequence of CCRL2 (Homo sapiens) (O00421 whole entry): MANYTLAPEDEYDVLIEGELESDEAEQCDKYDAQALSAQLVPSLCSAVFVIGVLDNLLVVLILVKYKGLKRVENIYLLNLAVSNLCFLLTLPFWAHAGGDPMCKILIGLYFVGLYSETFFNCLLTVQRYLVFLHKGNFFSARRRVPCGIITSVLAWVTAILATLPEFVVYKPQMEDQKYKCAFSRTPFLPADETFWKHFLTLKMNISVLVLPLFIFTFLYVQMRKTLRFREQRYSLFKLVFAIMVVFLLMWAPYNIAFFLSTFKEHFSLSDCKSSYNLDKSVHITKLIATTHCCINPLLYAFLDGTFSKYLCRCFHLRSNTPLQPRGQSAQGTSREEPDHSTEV
Sequence of GPR1 (Homo sapiens) (P46091 whole entry): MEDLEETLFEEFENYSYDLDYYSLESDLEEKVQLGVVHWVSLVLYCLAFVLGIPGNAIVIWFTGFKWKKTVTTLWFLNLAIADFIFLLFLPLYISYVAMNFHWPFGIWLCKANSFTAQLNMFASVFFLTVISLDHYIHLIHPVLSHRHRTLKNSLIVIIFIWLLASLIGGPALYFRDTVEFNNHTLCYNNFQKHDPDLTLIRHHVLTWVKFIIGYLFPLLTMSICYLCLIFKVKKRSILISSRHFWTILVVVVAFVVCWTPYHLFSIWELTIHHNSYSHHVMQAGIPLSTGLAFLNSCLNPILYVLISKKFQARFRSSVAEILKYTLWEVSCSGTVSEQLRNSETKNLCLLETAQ

In the case of Chemerin (from UniProt Q99969), the Kd (CCRL2 (Homo sapiens)) is given as 2.35 nM, the Kd (GPR1 (Homo sapiens)) is given as 0.21 nM and the Kd (CMKLR1 (Homo sapiens)) is given as 0.88 nM.
